Reference: the supplement of paper PMC10567573

B1: TMEM175 (parent)
chain: QTSAFARQPRDELERVRVSCTIIF
B2: RAD51 (parent)
chain: APKKELINIKGISEAKADKILAEA

Variants of: B1
Experiment: protein stability index of a GFP-peptide fusion (GPS, HEK-293T) (PSI 1-6); higher = more stable
Conditions: c terminus: a fixed tail appended
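Also: lentivirally expressed fusions sorted by FACS into six bins by GFP to DsRed ratio, PSI derived from sequencing read proportions per bin multiplied by bin number.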

Protein stability index of substitutions, site by site:
S19: F 1.57 | A 1.55 | V 1.99 | N 3.03 | I 1.73 | W 1.39 | P 1.6 | C 1.97 | R 1.84 | M 2.94 | G 2.74 | Q 2.37 | T 3.22 | Y 1.65 | L 1.78 | H 2.13
R7: T 2.68 | E 1.91 | Y 1.58 | F 2.53 | M 2.66 | V 1.33 | K 2.08 | L 2.48 | D 2.01 | Q 1.6 | I 2.42
F24: E 3.76 | W 1.21 | R 2.37 | Y 2.08 | A 2.02 | L 2.47 | D 3.47 | Q 2.56 | S 2.46 | K 3.15 | P 2.78 | T 1.64 | G 2.12 | M 2.35 | C 2.66 | N 2.48 | H 2.01
R17: E 2.92 | N 3.17 | G 2.53 | Q 3.06 | P 2.09 | S 2.35 | M 2.91 | D 2.58 | I 2.2 | L 4.15 | Y 4.15 | C 1.28 | F 2 | H 2.73 | A 3.04
E14: W 2.96 | P 3.5 | N 1.1 | Q 2.93 | Y 3.27 | R 2.03 | D 1.84 | A 1.67 | V 2.86 | F 3.09
T21: Q 1.58 | N 2.7 | L 2.64 | S 2.3 | C 2.27 | K 1.66 | P 2.06 | A 2 | F 2.01 | E 1.76 | M 2.77 | H 2.12 | Y 1.34 | R 1.52 | G 2.91 | I 2.63 | D 2.72
R15: V 2.81 | F 2.54 | C 1.88 | Q 1.77 | A 3.73 | N 4.18 | D 1.79 | Y 3.62 | L 3.73 | I 3.42 | T 5.08 | E 3.77 | P 2.19 | G 3.8 | M 2.04 | K 3.37 | W 3.37
P9: K 1.03 | H 2.88 | S 1.15 | I 2.44 | D 2.03 | T 2.67 | E 3.41 | N 2.67 | F 2.38 | R 1.91 | V 3.32 | G 2.81 | Y 2.83 | W 2.31 | L 2.43 | Q 1.71
D11: V 2.38 | Y 3.09 | K 3.33 | G 3.67 | A 3.09 | C 2.58 | P 2.6 | T 4.12 | E 2.73 | L 3.31 | Q 2.47 | N 3.52 | S 2.81
V16: K 1.97 | T 1.4 | I 2.63 | W 2.56 | H 2.65 | E 2.22 | N 2.04 | F 2 | S 1.83 | A 2.06 | Q 2.53 | L 1.91 | Y 2.81 | M 1.16 | R 2.47 | D 1.98 | G 1.14
I22: M 1.88 | D 3.54 | N 3.05 | L 2.49 | H 2.72 | V 2.17 | T 2.71 | C 2.08 | R 2.42 | E 2.91 | F 1.65 | Q 2.62 | S 2.28 | A 1.99 | K 3.06 | Y 1.69 | W 2.02 | P 3.2 | G 2.94
Q8: T 2 | H 2.68 | C 3.32 | M 3.58 | V 1.56 | Y 2.14 | L 1.87 | R 3.17 | G 4.14 | A 1.48 | P 2.1 | W 2.58 | I 2.01 | D 2.12
R10: V 2.03 | W 3.68 | D 2.48 | P 2.87 | K 3.68 | I 2.06 | N 2.57 | C 2.79 | H 2.4 | Q 3.27 | Y 2.65 | M 2.35 | A 2.28 | E 2.31 | S 2.4 | T 2.48
V18: L 1.08 | H 1.83 | D 2.02 | P 2.47 | S 2.23 | C 1.82 | E 2.31 | Q 1.71 | R 1.57 | W 2.19 | M 1.88 | I 2.49 | N 2.35 | A 2.53 | T 2.2 | K 2.41 | Y 2.11 | G 1.79 | F 2.17
E12: Y 2.81 | T 2.95 | M 1.89 | W 1.9 | A 3.94 | S 2.72 | I 2.56 | F 1.76 | Q 1.9 | K 2.07 | C 2.24 | H 2.73 | D 2.16
C20: T 1.51 | P 1.78 | D 2.53 | S 1.94 | W 2.42 | A 2.33 | K 1.95 | V 1.83 | F 2.07 | Y 1.83 | N 2.57 | E 2.22 | G 1.56 | I 2.61 | Q 2.42 | H 1.57 | R 3.05
L13: Q 1.27 | D 1.3 | F 3.31 | V 2.53 | M 2.23 | I 1.54 | K 1.64 | E 1.83 | N 1.55 | S 2 | C 3.23 | R 2.76 | W 2.89 | Y 4.09 | G 1.59 | T 1.99 | P 2.37
I23: Q 1.79 | L 1.82 | P 3.13 | F 3.33 | N 2.37 | M 2.91 | Y 2.6 | E 1.57 | G 2.83 | A 2.06 | S 2.69 | K 2.07 | V 3.26 | H 2.56 | D 2.81 | C 1.67 | R 2.21

Variants of: B2
Experiment: as above
Conditions: c terminus: a fixed tail appended

Protein stability index: each site, then its substitutions
A1: D 4.31 | C 4.73 | S 4.52 | G 4.71 | P 4.67 | V 4.08 | H 4.37 | L 4.72 | M 4.06 | I 4.39 | K 4.84 | Y 3.83 | T 4.41 | E 5.23 | F 3.87 | N 4.71 | Q 4.55 | W 3.75 | R 4.63
K3: A 4.92 | Q 4.81 | P 4.83 | C 4.28 | R 4.58 | E 4.94 | S 4.55 | G 4.65 | L 3.3 | D 4.71 | H 4.87 | M 3.95 | I 4.77 | F 3.48 | N 4.58
P2: F 3.62 | W 3.79 | V 4.44 | S 4.36 | C 4.5 | H 4.85 | D 5.18 | M 4.53 | T 4.6 | K 4.34 | G 4.68 | L 3.97 | Y 4.18 | R 4.02 | Q 4.88 | N 4.39 | E 4.7 | I 4.01 | A 4.93
